From patent publication EP4671273A1

Tests used:
[1] = target: hPD-1 expressed on Jurkat cells (human) (UniProt Q15116); experiment: flow cytometry on Jurkat PD-1 cells, competitor nivolumab at 100x molar excess
[2] = target: hPD-1 expressed on Jurkat cells (human) (UniProt Q15116); experiment: flow cytometry on Jurkat PD-1 cells, competitor pembrolizumab at 100x molar excess

hPD-1 expressed on Jurkat cells (human), sequence (Q15116 25-288): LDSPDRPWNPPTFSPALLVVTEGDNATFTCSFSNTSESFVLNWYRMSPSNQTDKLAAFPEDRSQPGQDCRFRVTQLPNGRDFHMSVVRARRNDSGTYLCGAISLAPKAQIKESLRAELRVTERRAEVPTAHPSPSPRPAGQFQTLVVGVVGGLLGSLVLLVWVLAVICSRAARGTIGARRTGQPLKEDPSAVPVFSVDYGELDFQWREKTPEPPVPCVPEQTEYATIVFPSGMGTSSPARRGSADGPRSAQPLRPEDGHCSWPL

B1: XVT458-z2-m6 (antibody, human IgG1, V domains shown)
VH: VQLVQSGAEVKKPGASVKVSCKASGYTFTNFYIHWVRQAPGQGLEWMGSIYPNYGITAYNQKFKDRVTMTVDTSTSTAYMELRSLRSDDTAVYYCARGYSYAMDYWGQGTTVTVSS
VL: DIQMTQSPSSVSASVGDRVTITCSASQGISGDLNWYQQKPGKAPKLLIYHTSQLHSDVPSRFSGSGSGTDFTLTISSLQPEDFATYYCQGYSKDLLTFGGGTKLEIK
Question: B1 was tested. Which signal inhibition in % [1] did it give?
Answer: 8.66%

Question: And the signal inhibition in % [2]?
Answer: 8.66%
